# Experimental data published in patent US20090005659A1, “Tissue Ablation by Shear Force for Sampling Biological Fluids and Delivering Active Agents” (priority 2000, published 2009).
# Values joined by “and” are separate entries in the source; they are usually repeats but may differ in a detail not shown here. Equal entries are not always repeated.
# How the values were obtained:
# [1] = tested on: intact skin of human and swine; test: Penetration of insulin into intact skin (own experiment, result not shown); assay type: in vivo; conditions: no shear perforation
# Excerpt: The stratum corneum is recognized as the primary barrier to percutaneous absorption of drug applied to the skin surface. The densely structured outmost skin layer consisting of flattened and keratinized dead skin cells provides a formidable permeation barrier to most small and virtually all large compounds. […] Our own experiment confirmed this (result not shown). This example investigates in vivo transdermal delivery of insulin into swine following application of shear perforation to remove the stratum corneum barrier at the test site.
# pigs = test: Swine glucose monitoring study: subcutaneous fast-acting insulin, blood glucose; assay type: in vivo, pig; conditions: 2 IU subcutaneous, four pigs
# Method: A swine study was conducted for glucose measurements in both capillary blood and ISF extracted from the micropores generated by the shear perforation procedure as described in Example 3. Briefly, subcutaneous injections of fast-acting insulin (2 IU, Regular Iletin® II, U-100, Pork, Eli Lilly, Indianapolis, Ind.) were administered to four pigs. […] Glucose changes in the blood were monitored periodically using One Touch® Basic glucose meter (LifeScan, Inc., Milpitas, Calif.) on blood samples from the ear vein. ISF samples were obtained by application of a weak suction to the micropores on the skin with an Asoivenin® suction device (ASPIR, Sannois, France). The ISF samples collected throughout the whole experiment were tested for glucose using both a FastTake® and One Touch® Basic glucose meter blood glucose meters (LifeScan, Inc., Milpitas, Calif.) as wells as an YSI glucose analyzer (Model 2700 Select Biochemistry Analyzer, YSI Inc., Yellow Springs, Ohio). A calibration procedure was conducted for the two home-use glucose meters (i.e., the One Touch® and FastTake® meters) against the YSI glucose analyzer using aqueous glucose solutions of various concentrations.
# female Yorkshire pigs [2] = test: Transdermal delivery of insulin by passive diffusion following shear perforation of the skin; assay type: in vivo, pig
# Method: Two female Yorkshire pigs of the same body weight range as those in Example 2 were immobilized with anesthetics. The test site on the side of the chest was prepared by clipping lightly off the hair and cleaning with an alcohol wipe. Special care was taken not to damage the skin. Shear perforation of the pig skin was performed with a Remington shaver (Remington Microscreen 1®, Remington, Bridgeport, Conn., USA) by pressing its screen firmly on the skin for about 1 second. This procedure was repeated at an adjacent skin site until 10 cm^2 of the skin was shear-perforated. Only slight erythema was observed on the test site. A drug reservoir patch made of silicone rubber (Silastic® Sheet, Medical Grade, Dow Corning Corp., Midland, Mich., USA) was affixed to the test skin with silicone adhesive (Secure® Adhesive, BT-401, Factor II, Inc., Lakeside, Ariz., USA). […] The thickness of the drug reservoir was 0.5 mm. An insulin solution (0.5 ml, Regular Iletin® II, Insulin Injection, USP, Purified Pork, Eli Lilly and Company, Indianapolis, Ind., USA) was placed into the drug reservoir which covered the shear-perforated skin to allow insulin molecules to enter the pig body through the pores on the stratum corneum driven by insulin concentration gradient. Transdermal insulin delivery was conducted in this way for 50 minutes. Insulin delivery was then terminated by removing the insulin patch. Blood samples were taken from the pigs prior to, during, and after transdermal insulin delivery for determination of blood glucose and insulin concentrations.
# female Yorkshire pigs [3] = test: Subcutaneous injection of insulin (control experiment): blood glucose and plasma insulin profiles; assay type: in vivo, pig; conditions: four pigs
# Excerpt: The subcutaneous administration of insulin provides a dose response to which a comparative measure of transdermally delivered insulin can be made. An insulin dose of 5 IU insulin (Regular Iletin® II, Insulin Injection, USP, Purified Pork, Eli Lilly and Company, Indianapolis, Ind., USA) was subcutaneously injected in the rear mid-ventral area of each of four female Yorkshire pigs (weight: 22-26 kg) with a 1 cc Sub-Q Precision Glide® Needle (Becton-Dickinson and Company, Franklin Lakes, N.J., USA).
# As the insulin concentrations went back to its basal concentration (FIG. 5b), the blood glucose concentrations also were gradually returned toward its pre-insulin injection level (FIG. 5a).
substance,measurement,setting,value
insulin,penetration into intact skin,[1],cannot penetrate into the intact skin
same,blood glucose concentration,pigs,significant reduction in the blood glucose concentration
same,blood glucose,"female Yorkshire pigs [2]; 0.5 ml insulin solution patch over 10 cm^2 shear-perforated skin, 50 minutes, two pigs, FIG. 6a",Drastic reduction in the blood glucose
same,time for blood glucose concentrations to return to a near normal level,"female Yorkshire pigs [2]; transdermal insulin over shear-perforated skin, 50 minutes delivery, two pigs",about 5 hours
same,peak plasma insulin concentrations,"female Yorkshire pigs [2]; transdermal, shear-perforated skin 10 cm^2, one value per pig, FIG. 6b",50 μIU/ml and 90 μIU/ml
same,time of peak plasma insulin concentration,"female Yorkshire pigs [2]; transdermal, shear-perforated skin, peak at the end of delivery",50 min
same,peak insulin concentrations,"female Yorkshire pigs [3]; 5 IU insulin subcutaneous injection, plasma, FIG. 5b",31-55 μIU/ml
same,blood glucose concentration,"female Yorkshire pigs [3]; 5 IU insulin subcutaneous, FIG. 5a",rapid reduction in blood glucose concentration
